These results are taken from the supplement of paper PMC5998384.

Data set [1] concerns HeLa Kyoto. Put plainly: solubility in G1/S (NP-40 vs SDS abundance) (log2 ratio); higher = more soluble. The note with it: cell cycle stage: G1/S.
For data set [2], the system named is HeLa Kyoto. The data set is described as follows: melting temperature (median over replicates), in situ; higher = more thermally stable.
For data set [3], the system named is HeLa Kyoto. The data set is described as follows: solubility change mitosis vs G1/S (difference of NP-40 vs SDS log2 ratios) (log2 ratio difference); higher = more soluble in mitosis.
The test system of data set [4] is HeLa Kyoto. The data set is described as follows: thermal stability score vs G1/S (z-score of summed log2 fold changes over temperatures); higher = more thermally stable than in G1/S.
[5] abbreviates: cell cycle stage: early G1 (4.5 h after nocodazole release).
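For melting temperature (median over replicates), in situ in this document: HeLa Kyoto cells synchronized by double thymidine or nocodazole block, proteins quantified by TMT10plex mass spectrometry, three independent biological replicates.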
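For solubility change mitosis vs G1/S (difference of NP-40 vs SDS log2 ratios) in this document: synchronized HeLa Kyoto cells (double thymidine block for G1/S, nocodazole release for mitosis), protein amounts in NP-40 versus SDS lysates quantified by mass spectrometry, three biological replicates.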
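For solubility in G1/S (NP-40 vs SDS abundance) in this document: HeLa Kyoto cells arrested at G1/S by double thymidine block, proteins quantified by TMT10plex mass spectrometry in mild NP-40 versus SDS extracts, three biological replicates.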
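For thermal stability score vs G1/S (z-score of summed log2 fold changes over temperatures) in this document: synchronized HeLa Kyoto cells, proteins quantified by TMT10plex mass spectrometry, three biological replicates, mitosis taken 0.5 h after nocodazole release, G1/S directly after double thymidine block.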

Turning to “MSATAAARKRGKPASGAGAGAGAGKRRRKADSAGDRGKSKGGGKMNEEISSDSESESLAPRKPEEEEEEELEETAQEKKLRLAKLYLEQLRQQEEEKAEARAFEEDQVAGRLKEDVLEQRGRLQKLVAKEIQAPASADIRVLRGHQLSITCLVVTPDDSAIFSAAKDCSIIKWSVESGRKLHVIPRAKKGAEGKPPGHSSHVLCMAISSDGKYLASGDRSKLILIWEAQSCQHLYTFTGHRDAVSGLAFRRGTHQLYSTSHDRSVKVWNVAENSYVETLFGHQDAVAALDALSRECCVTAGGRDGTVRVWKIPEESQLVFYGHQGSIDCIHLINEEHMVSGADDGSVALWGLSKKRPLALQREAHGLRGEPGLEQPFWISSVAALLNTDLVATGSHSSCVRLWQCGEGFRQLDLLCDIPLVGFINSLKFSSSGDFLVAGVGQEHRLGRWWRIKEARNSVCIIPLRRVPVPPAAGS [RRP9]”, the “solubility in G1/S (log2)” value in the data set with HeLa Kyoto [1] was -1.11. Further, the melting temperature is 59.7 °C with HeLa Kyoto [2] (cell cycle stage: G1/S) and 56.5 °C with HeLa Kyoto [2] (cell cycle stage: mitosis). Further, the “solubility change mitosis (log2)” value with HeLa Kyoto [3] amounted to 0.596. Besides, the thermal stability score was -3.65 in the data set on HeLa Kyoto [4] (setting [5]) and -9.84 in the data set with HeLa Kyoto [4] (cell cycle stage: mitosis).
Regarding “MSCCDLAAAGQLGKASIMASDCEPALNQAEGRNPTLERYLGALREAKNDSEQFAALLLVTKAVKAGDIDAKTRRRIFDAVGFTFPNRLLTTKEAPDGCPDHVLRALGVALLACFCSDPELAAHPQVLNKIPILSTFLTARGDPDDAARRSMIDDTYQCLTAVAGTPRGPRHLIAGGTVSALCQAYLGHGYGFDQALALLVGLLAAAETQCWKEAEPDLLAVLRGLSEDFQKAEDASKFELCQLLPLFLPPTTVPPECYRDLQAGLARILGSKLSSWQRNPALKLAARLAHACGSDWIPAGSSGSKFLALLVNLACVEVRLALEETGTEVKEDVVTACYALMELGIQECTRCEQSLLKEPQKVQLVSVMKEAIGAVIHYLLQVGSEKQKEPFVFASVRILGAWLAEETSSLRKEVCQLLPFLVRYAKTLYEEAEEANDLSQQVANLAISPTTPGPTWPGDALRLLLPGWCHLTVEDGPREILIKEGAPSLLCKYFLQQWELTSPGHDTSVLPDSVEIGLQTCCHIFLNLVVTAPGLIKRDACFTSLMNTLMTSLPALVQQQGRLLLAANVATLGLLMARLLSTSPALQGTPASRGFFAAAILFLSQSHVARATPGSDQAVLALSPEYEGIWADLQELWFLGMQAFTGCVPLLPWLAPAALRSRWPQELLQLLGSVSPNSVKPEMVAAYQGVLVELARANRLCREAMRLQAGEETASHYRMAALEQCLSEP [NCDN]”, the “solubility in G1/S (log2)” value in the data set with HeLa Kyoto [1] came to 0.191. Further, the melting temperature was 49.8 °C in the data set with HeLa Kyoto [2] (cell cycle stage: G1/S) and 50.2 °C with HeLa Kyoto [2] (cell cycle stage: mitosis). Further, in the data set with HeLa Kyoto [3], the “solubility change mitosis (log2)” value was -0.084. In addition, the thermal stability score was 1.7 with HeLa Kyoto [4] (setting [5]) and 2.44 in the data set on HeLa Kyoto [4] (cell cycle stage: mitosis).
As to “MSCINLPTVLPGSPSKTRGQIQVILGPMFSGKSTELMRRVRRFQIAQYKCLVIKYAKDTRYSSSFCTHDRNTMEALPACLLRDVAQEALGVAVIGIDEGQFFPDIVEFCEAMANAGKTVIVAALDGTFQRKPFGAILNLVPLAESVVKLTAVCMECFREAAYTKRLGTEKEVEVIGGADKYHSVCRLCYFKKASGQPAGPDNKENCPVPGKPGEAVAARKLFAPQQILQCSPAN [TK1]”, the “solubility in G1/S (log2)” value with HeLa Kyoto [1] amounted to 0.28. Further, the melting temperature with HeLa Kyoto [2] (cell cycle stage: G1/S) came out at 56.1 °C; with HeLa Kyoto [2] (cell cycle stage: mitosis), 57.3 °C. In the data set on HeLa Kyoto [3], the “solubility change mitosis (log2)” value was -0.138. Also, the thermal stability score is -4.01 in the data set on HeLa Kyoto [4] (setting [5]) and -1.09 with HeLa Kyoto [4] (cell cycle stage: mitosis).
As for “MSDAAVDTSSEITTKDLKEKKEVVEEAENGRDAPANGNAENEENGEQEADNEVDEEEEEGGEEEEEEEEGDGEEEDGDEDEEAESATGKRAAEDDEDDDVDTKKQKTDEDD [PTMA]”, the “solubility in G1/S (log2)” value in the data set with HeLa Kyoto [1] was -1.5. In addition, the melting temperature with HeLa Kyoto [2] (cell cycle stage: G1/S) was 54.9 °C; in the data set on HeLa Kyoto [2] (cell cycle stage: mitosis), 55.1 °C. In addition, the “solubility change mitosis (log2)” value in the data set with HeLa Kyoto [3] is -0.00535. Besides, the thermal stability score was -0.717 with HeLa Kyoto [4] (setting [5]) and -1.69 in the data set on HeLa Kyoto [4] (cell cycle stage: mitosis).
For the sequence “MSDDDSRASTSSSSSSSSNQQTEKETNTPKKKESKVSMSKNSKLLSTSAKRIQKELADITLDPPPNCSAGPKGDNIYEWRSTILGPPGSVYEGGVFFLDITFTPEYPFKPPKVTFRTRIYHCNINSQGVICLDILKDNWSPALTISKVLLSICSLLTDCNPADPLVGSIATQYMTNRAEHDRMARQWTKRYAT [UBE2E1]”, the “solubility in G1/S (log2)” value in the data set with HeLa Kyoto [1] came out at 0.338. Further, the melting temperature in the data set with HeLa Kyoto [2] (cell cycle stage: G1/S) amounted to 48.5 °C; in the data set on HeLa Kyoto [2] (cell cycle stage: mitosis) it was 49.5 °C. In addition, the “solubility change mitosis (log2)” value in the data set with HeLa Kyoto [3] is -0.151. In addition, the thermal stability score with HeLa Kyoto [4] (setting [5]) came to 1.73; in the data set on HeLa Kyoto [4] (cell cycle stage: mitosis), 3.2.
On to “MSDEGSRGSRLPLALPPASQGCSSGGGGGGSSAGGSGNSRPPRNLQGLLQMAITAGSEEPDPPPEPMSEERRQWLQEAMSAAFRGQREEVEQMKSCLRVLSQPMPPTAGEAEQAADQQEREGALELLADLCENMDNAADFCQLSGMHLLVGRYLEAGAAGLRWRAAQLIGTCSQNVAAIQEQVLGLGALRKLLRLLDRDACDTVRVKALFAISCLVREQEAGLLQFLRLDGFSVLMRAMQQQVQKLKVKSAFLLQNLLVGHPEHKGTLCSMGMVQQLVALVRTEHSPFHEHVLGALCSLVTDFPQGVRECREPELGLEELLRHRCQLLQQHEEYQEELEFCEKLLQTCFSSPADDSMDR [HSPBP1]”, for which the “solubility in G1/S (log2)” value in the data set on HeLa Kyoto [1] was 0.303. Also, the values for the melting temperature with HeLa Kyoto [2] (cell cycle stage: G1/S) and in the data set on HeLa Kyoto [2] (cell cycle stage: mitosis) were 50.8 °C and 51.2 °C, respectively. The “solubility change mitosis (log2)” value in the data set with HeLa Kyoto [3] stood at 0.0712. Also, the results for the thermal stability score in the data set on HeLa Kyoto [4] (setting [5]) and in the data set on HeLa Kyoto [4] (cell cycle stage: mitosis) were 0.863 and 0.675, respectively.
Take “MSDEREVAEAATGEDASSPPPKTEAASDPQHPAASEGAAAAAASPPLLRCLVLTGFGGYDKVKLQSRPAAPPAPGPGQLTLRLRACGLNFADLMARQGLYDRLPPLPVTPGMEGAGVVIAVGEGVSDRKAGDRVMVLNRSGMWQEEVTVPSVQTFLIPEAMTFEEAAALLVNYITAYMVLFDFGNLQPGHSVLVHMAAGGVGMAAVQLCRTVENVTVFGTASASKHEALKENGVTHPIDYHTTDYVDEIKKISPKGVDIVMDPLGGSDTAKGYNLLKPMGKVVTYGMANLLTGPKRNLMALARTWWNQFSVTALQLLQANRAVCGFHLGYLDGEVELVSGVVARLLALYNQGHIKPHIDSVWPFEKVADAMKQMQEKKNVGKVLLVPGPEKEN [VAT1]”: in the data set on HeLa Kyoto [1], the “solubility in G1/S (log2)” value is 0.232. In addition, the results for the melting temperature in the data set on HeLa Kyoto [2] (cell cycle stage: G1/S) and in the data set with HeLa Kyoto [2] (cell cycle stage: mitosis) were 55.9 °C and 55.3 °C, respectively. Moreover, the “solubility change mitosis (log2)” value in the data set on HeLa Kyoto [3] is -0.125. Moreover, the thermal stability score with HeLa Kyoto [4] (setting [5]) is -0.577; with HeLa Kyoto [4] (cell cycle stage: mitosis) it was -3.49.
In the case of “MSDKLPYKVADIGLAAWGRKALDIAENEMPGLMRMRERYSASKPLKGARIAGCLHMTVETAVLIETLVTLGAEVQWSSCNIFSTQDHAAAAIAKAGIPVYAWKGETDEEYLWCIEQTLYFKDGPLNMILDDGGDLTNLIHTKYPQLLPGIRGISEETTTGVHNLYKMMANGILKVPAINVNDSVTKSKFDNLYGCRESLIDGIKRATDVMIAGKVAVVAGYGDVGKGCAQALRGFGARVIITEIDPINALQAAMEGYEVTTMDEACQEGNIFVTTTGCIDIILGRHFEQMKDDAIVCNIGHFDVEIDVKWLNENAVEKVNIKPQVDRYRLKNGRRIILLAEGRLVNLGCAMGHPSFVMSNSFTNQVMAQIELWTHPDKYPVGVHFLPKKLDEAVAEAHLGKLNVKLTKLTEKQAQYLGMSCDGPFKPDHYRY [AHCY]”, the “solubility in G1/S (log2)” value in the data set on HeLa Kyoto [1] stood at 0.0748. For the same sequence, the melting temperature in the data set on HeLa Kyoto [2] (cell cycle stage: G1/S) is 58.9 °C; in the data set on HeLa Kyoto [2] (cell cycle stage: mitosis), 59.3 °C. The “solubility change mitosis (log2)” value in the data set on HeLa Kyoto [3] was -0.0568. For the same sequence, the figures for the thermal stability score with HeLa Kyoto [4] (setting [5]) and in the data set on HeLa Kyoto [4] (cell cycle stage: mitosis) were -2.93 and -2.39, respectively.
